Experimental data taken from publication PMC6054568.

Tests used:
[1] = molecular target: ErbB2 CCH-10 (UniProt P04626); assay: bipartite tetracysteine display
[2] = molecular target: ErbB2 V635G CCH-10 (UniProt P04626); assay: bipartite tetracysteine display

Substance | fold increase in ReAsH fluorescence (no growth factor) [1] | fold increase in ReAsH fluorescence (no growth factor) [2]
ErbB2 CCH-10 (from UniProt P04626 23-1255) (receptor) | 1.8 fold | 
ErbB2 V635G CCH-10 (from UniProt P04626 23-1255) (receptor) |  | 1.7 fold
